How the values were obtained:
[1] = tested on: S. epidermidis (clinical isolate); assay: Collagen binding assay, S. epidermidis; assay type: cell-based; conditions: untreated 0.09
Method: (§1) Wells were filled with 1 mg/ml soluble collagen overnight at 4° C. Control wells were coated with 1% BSA. The protein solutions were removed and permitted to stand at 37° C. for 1 h. A solution of 2% BSA was added to the wells to block unoccupied sites and prevent non-specific binding of bacteria. After 30 min, BSA was removed and the wells were washed once with distilled water. Finally, the bacterial suspensions (100 μl, OD 1.4) were added to the plates and incubated at 37° C. for 2 h. Unbound bacteria were removed by washing the wells three times with PBS containing 0.01% Tween 20. The wells were dried at 37° C. for 30 min and stained with crystal violet for 15 min. Wells were rinsed with distilled water and dried at 37° C. for 2 h. After adding 100 μl of 95% (v/v) ethanol to each well the plates were then shaken to release the stain and a reading of 550 nm was carried out.

[2] = tested on: E. coli possessing type 1 fimbriae; assay: Adhesion of E. coli to a mannose receptor; assay type: cell-based; conditions: E. coli treated with asparaginase versus untreated cells
Method: Materials and methods were generally as described in the Examples above, but modified for observing adhesion by E. coli to a mannose receptor. […] The E. coli were then incubated with a source of mannose receptor.

[3] = tested on: endogenous bacteria attached to UECs; assay: Removal of endogenous biota from sloughed urinary epithelial cells; assay type: cell-based; conditions: for Percent UECs with ≧30 Bacteria Attached: PBS 30
Method: Sloughed epithelial cells were incubated with the enzymes, collected by filtration, transferred to microscope slides and stained with crystal violet. Then 50 epithelial cells from each slide were randomly assessed for the numbers of bacteria associated with them and placed into one of four categories: Cells with 0-9, 10-29, 30-49, or >50 bacteria associated with them.

S. pyogenes [4] = assay: Collagen binding assay, S. pyogenes; assay type: cell-based
Method: as §1

[5] = tested on: A. naeslundii ATCC 12104 (adhesin) / P. intermedia (receptor); assay: Coaggregation A. naeslundii ATCC 12104 / P. intermedia; conditions: P. intermedia (receptor) enzyme treated; polyphenol oxidase 90 U/ml, asparaginase 20 U/ml
Method: (§4) S. sanguis 10556, A. naeslundii strains 12104 and T14V and E. coli were grown static cultures in Todd-Hewitt broth (BBL Microbiology Systems, Cockeysville, Md.). P. gingivalis W50, A. actinomycetemcomitans and C. ochracea were grown in brain heart infusion broth (BBL). F. nucleatum 22586 and P. intermedia 25611 were grown in modified Schaedler broth (BBL). All oral species except S. sanguis 10556 were incubated at 37° C. as static cultures under an anaerobic atmosphere containing H2, CO2 and N2(10:10:80) with GasPaks (BBL). S. sanguis was incubated at 37° C. as static cultures in 5% CO2.
(§5) Bacteria were harvested in the mid to late exponential growth phase by centrifugation (10,000×g for 10 min at 4° C.). The cells were washed twice in coaggregation buffer (30 mM 3-[N-morpholino]propanesulfonic acid (MOPS), pH 7.0) and adjusted to an optical density of 0.6-0.8 at 540 nm (1-cm path). […]
(§6) Coaggregation was assessed by turbidity changes. Following mixing of the cells for 10 s on a Vortex mixer, absorbance readings were made every 30 min. The percentage of coaggregation was calculated from the following formula: Percent coaggregation=[OD540(A)+OD540(B)−OD540(A+B)]/(OD540(A)+OD540(B)), where A is the control containing cells of one strain, B is the control containing cells of the other strain, and A+B is the reaction mixture containing both cells. […]

S. aureus = assay: Collagen binding assay, S. aureus; assay type: cell-based
Method: as §1

[6] = tested on: S. sobrinus glucosyltransferase; assay: Purified S. sobrinus glucosyltransferase treated with asparaginase; assay type: biochemical
Method: Glucosyltransferase activity was detected as described in the art, with some modifications described hereinbelow. Protein samples were mixed with electrophoresis sample buffer and incubated for 1 to 4 h at 37° C. before the gel was run. Nonfixed gels were incubated in 50 mM sodium acetate (pH 5.5) containing 1% vol/vol Triton X-100, 2 % (wt/vol) sucrose, and 0.07% (wt/vol) NaN3 at 37° C. for 24 h. Gels were also incubated in the same buffer with glucan T2000 (2 to 4 mg/ml) or fluorescein isothiocyanate-conjugated glucan T-10 (2 mg/ml) to detect both glucosyltransferases and glucan binding proteins (GBPs). After incubation, the gels were fixed for 30 min in 75% ethanol and rocked on a shaker for 30 min with 0.7% periodic acid in 5% acetic acid. The gels were then shaken for 1 h in 0.2% (wt/vol) sodium metabisulfite in 5% acetic acid. After two additional treatments in sodium metabisulfate and acetic acid, the gels were placed in Schiff's reagent for 0.5 to 1 h. Finally the gels were washed extensively in 45% methanol-45% acetic acid-10% H2O for destaining. In some experiments, purified protein was treated with 100 μg/ml polyphenol oxidase for 1 h, or with asparaginase, before loading on the gel.

[7] = tested on: P. gingivalis W50 (adhesin) / A. naeslundii T14V (receptor); assay: Coaggregation P. gingivalis W50 / A. naeslundii T14V; conditions: P. gingivalis W50 (adhesin) enzyme treated; polyphenol oxidase 90 U/ml, asparaginase 20 U/ml
Method: as §4, §5, §6

S. pyogenes [8] = assay: Fibronectin binding assay, S. pyogenes; assay type: cell-based; conditions: polyphenol oxidase 80 U/ml, asparaginase 20 U/ml
Method: Wells were filled with human serum fibronectin (50 μg/ml) diluted in carbonate buffer (50 mM Na2CO3—NaHCO3, pH 9.5 overnight). Controls were coated with 1% BSA. The wells were washed three times with PBS and incubated with PBS-Tween (0.5% Tween 20 and 0.05% NaN3) 1 h at 37° C. After attachment, the wells were washed three times with PBS-Tween and allowed to dry. Subsequent assays were as described hereinabove.

P-fimbriated E. coli = assay: Flow cytometric adhesion of P-fimbriated E. coli to UECs; assay type: cell-based
Source text: (§2) Methods for handling polyphenol oxidase and asparaginase and for observing adhesion by microorganisms were generally as described in the previous Examples with variations to adapt these methods to epithelial cells.
(§3) The bacteria were labeled intracellularly with the fluorescein dye CFDA-SE. Median fluorescence intensity of the UECs was taken as a measure of the number of bacteria attached to them. In the Figures below, median fluorescence is converted to % adhesion using control conditions (UEC+untreated bacteria) as 100%.

[9] = tested on: Type 1-fimbriated E. coli; assay: Flow cytometric adhesion of type 1-fimbriated E. coli to UECs; assay type: cell-based
Source text: as §2, §3

S. sanguis = assay: Adhesion of S. sanguis to saliva-coated hydroxylapatite beads; assay type: cell-based, Streptococcus sanguis; conditions: polyphenol oxidase 100 μg/ml or 150 units; asparaginase 20 U/ml; 1 hr at 37° C.
Method: S. sanguis was grown and handled according to procedures known to those of skill in the art. Hydroxylapatite beads were coated with saliva and washed. Adhesion was measured using [^3H]thymidine labeled streptococci. Various cell densities were run but using a single 40 mg weight of beads.
The “cooperative” adhesion (loss of upward slope on the Scatchard plot) was absent following both enzyme treatments. Incubation of cells with enzymes was 1 hr at 37° C.

Proteus vulgaris = assay: Growth inhibition of Proteus vulgaris; assay type: cell-based

B1: asparaginase: enzyme that catalyzes hydrolysis of the side chain amide group of asparagine to a carboxyl group; E. coli asparaginase (protein, UniProt P00805 23-348, looked up)
L-asparaginase 2: LPNITILATGGTIAGGGDSATKSNYTVGKVGVENLVNAVPQLKDIANVKGEQVVNIGSQDMNDNVWLTLAKKINTDCDKTDGFVITHGTDTMEETAYFLDLTVKCDKPVVMVGAMRPSTSMSADGPFNLYNAVVTAADKASANRGVLVVMNDTVLDGRDVTKTNTTDVATFKSVNYGPLGYIHNGKIDYQRTPARKHTSDTPFDVSKLNELPKVGIVYNYANASDLPAKALVDAGYDGIVSAGVGNGNLYKSVFDTLATAAKTGTAVVRSSRVPTGATTQDAEVDDAKYGFVASGTLNPQKARVLLQLALTQTKDPQQIQQIFNQY
[1]
  Absorbance (collagen): 0.05
[2]
  binding to the mannose receptor: reduced binding
[3]
  numbers of UECs with large numbers of endogenous bacteria: little or no effect
[3]; asparaginase 5 U/ml, 30 minute incubation
  Percent UECs with ≧30 Bacteria Attached: 28%
[3]; asparaginase 10 U/ml, 30 minute incubation
  Percent UECs with ≧30 Bacteria Attached: 26%
[3]; polyphenol oxidase 70 or 140 U/ml, asparaginase 5 or 10 U/ml, 30 minute incubation
  effects on the numbers of endogenous bacteria attached to UECs: relatively minor effects
S. pyogenes [4]; S. pyogenes M4, untreated 0.19
  Absorbance (collagen): 0.10
S. pyogenes [4]; S. pyogenes M24, untreated 0.31
  Absorbance (collagen): 0.13
[5]
  Inhibition % of coaggregation: 23%
S. aureus; S. aureus Cowan, untreated 0.47
  Absorbance (collagen): 0.30
S. aureus; S. aureus Wood, untreated 0.40
  Absorbance (collagen): 0.26
[6]
  binding by the glucosyltransferase to high molecular weight dextrans: reduced binding
[6]; not shown
  activity gel (hydrolysis of sucrose following renaturation of an SDS-PAGE gel): loss of activity
  glucan binding, enhanced chemiluminescence gel: loss of glucan binding
[7]
  Inhibition % of coaggregation: i 31%
S. pyogenes [8]; S. pyogenes M4, untreated 0.32
  Absorbance (fibronectin): 0.15
S. pyogenes [8]; S. pyogenes M24, untreated 0.33
  Absorbance (fibronectin): 0.21
P-fimbriated E. coli; asparaginase 2.5 units/ml
  decrease in adhesion to UECs: 45%
P-fimbriated E. coli; asparaginase 5 units/ml
  decrease in adhesion to UECs: 55%
P-fimbriated E. coli; asparaginase 25 units/ml
  decrease in adhesion to UECs: 85%
P-fimbriated E. coli; bacteria first incubated with globoside, then polyphenol oxidase 282 units/ml or asparaginase 5 units/ml
  adhesion to UECs: nearly the same as that of untreated bacteria
[9]; asparaginase <2 units/ml
  decrease in adhesion to UECs: 13%
[9]; asparaginase >2 units/ml
  decrease in adhesion to UECs: 85-90%
[9]; asparaginase singly, 10 units/ml
  prevention of adhesion to UECs: 90%
[9]; bacteria first incubated with MUMB 50 mM, then polyphenol oxidase 141 units/ml or asparaginase 10 units/ml
  reduction in adhesion to UECs: 50%
[9]; mannopyranoside 50 mM followed by asparaginase 10 units/ml
  increase in adhesion to UECs: 40%
S. sanguis
  adhesion to hydroxylapatite: reduced adhesion
Proteus vulgaris
  inhibition of growth of Proteus vulgaris: did not significantly inhibit growth

Reference: patent US20020009436A1, “Methods and compositions for inhibiting adhesion by microorganisms” (priority 1999, published 2002)
